The record followed here is article doi:10.1101/2024.10.04.616518 (2024).

Test [1] has as its target bovine pancreatic chymotrypsin (bovine). The test can be described thus: apparent Ki, Morrison fit, 25 nM chymotrypsin.
Test [2] has the same target. The test can be described thus: apparent Ki, intercept of IC50 vs chymotrypsin concentration.

B1: ixochymostatin (natural protein)
chain: ANTGIEWPPKPQKCAEGETWKECVGSSCAELTCEHPEPSLGCTYDCNYGCYCAPDFFRNANKECVKKDKCP
As for B1, the Ki in test [1] was 0.99 nM; in test [2] it was 16.5 nM.
